41 sequences from the nanobody polyreactivity screen of Harvey et al. (2022) can be followed below.

A short description of this series: yeast display, Sf9 membrane polyspecificity reagent, FACS + sequencing; frameworks hold sequencing errors. A digest of the protocol: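 A nanobody's polyreactivity label depends on the gate it was sorted from. Yeast display cells were stained with 10% biotinylated, detergent-solubilized Sf9 membrane reagent for 1 hour at 4 °C, enriched on streptavidin microbeads and sorted by FACS. The low and high (top ~1%) gates were set on anti-HA fluorescence for expression and streptavidin fluorescence for reagent binding.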
For the sequence “QVQLVESGGGLVQAGGSLRLSCAASGSIFYYNMGWYRPAPGKERELVAAISGGGGSTFYADSVKGRFTISRDNAKNTVYLQMNSLKPEDTAVYYCAARATTRRKKRMDYWGQGTQVTVSS”, the “polyreactivity (PSR sort gate)” value is “high polyreactivity”.

On to “QVQLVESGGGLVQAGGSLRLSCAASGSIFYYYAMGWSRQAPGKERELVAGINSGDSTYYADSVKGRFTISRDNAKNTVYLQMNRLKPEYTAVYYCAASADWWYEYWGQGTEVTVSS”, for which the “polyreactivity (PSR sort gate)” value was “low polyreactivity”.

As for “QVQLVESGGGLVQAGGSLRLSCAASGSIFYYYAMGWYRQAPGKERELVAAINGGDGRTYYADSVKGRFTISRDNGKNTVYLQMNSLKPEDTAVYYCAADWPGYSAYYYWGQGTQVTVSS”, the “polyreactivity (PSR sort gate)” value is given as “low polyreactivity”.

For the sequence “QVQLVESGGGLVQAGGSLRLSCAASGSIFYYYAMGWYRQAPGKERELVAAITSGGSTYYADSVKGRFTISRDNAKNTVYLQMNSLKPEDTAVYYCAAYGYYRGYPFHWYDYWGQGTQVTVSS”, the “polyreactivity (PSR sort gate)” value is listed as “high polyreactivity”.

Take “QVQLVESGGGLVQAGGSLRLSCAASGSIFYYYAMGWYRQAPGKERELVAAITVSGGRTYYADSVKGRFTISRDNAKNTVYLQMNSLKPEATAVYYCAAQIYGKYDYWGQGTQVTVSS”: the “polyreactivity (PSR sort gate)” value is reported as “low polyreactivity”.

“QVQLVESGGGLVQAGGSLRLSCAASGSIFYYYAMGWYRQAPGKERELVADISRSGTSTYYADSVKGRFTISRDNAKNTVYLQMNSLKPEDTAVYYCNVLRVKSITYLMDYWGQGTQVTVSS”: the “polyreactivity (PSR sort gate)” value was “high polyreactivity”.

On to “QVQLVESGGGLVQAGGSLRLSCAASGSIFYYYAMGWYRQAPGKERELVADITRDCGTTYYADSVKGRFTISRDNAKNTVYLQMNSLKPEDTAVYYCNARSIVFDWSAGRAKMDYWGQGTQVTVSS”, for which the “polyreactivity (PSR sort gate)” value is reported as “low polyreactivity”.

As for “QVQLVESGGGLVQAGGSLRLSCAASGSIFYYYARGWYRQAPGKERELVAAITSGGRTKYADSVKGRFTISRDNAKNTVNLQMNSLKPEDTAVYYCNARNYGKYRTNDYWGQGTQVTVSS”, the “polyreactivity (PSR sort gate)” value is given as “high polyreactivity”.

Turning to “QVQLVESGGGLVQAGGSLRLSCAASGSIFYYYSMGWYRQAPGKERELVATISSTTTTYADSVKGRFTISRDNPINTVYLNMNSMKPEDTAVYYCSFDYWGHGTQVTVSS”, the “polyreactivity (PSR sort gate)” value is on record as “low polyreactivity”.

Turning to “QVQLVESGGGLVQAGGSLRLSCAASGSIIDLNAMGWYRKAHGKERELVAAISSGGITYYADSVKGRFTISRDNAKNTVYLHMNSLKPEDTAVYYCAARYNHYFSLYDYWGQGTQVTVSS”, the “polyreactivity (PSR sort gate)” value is on record as “high polyreactivity”.

In the case of “QVQLVESGGGLVQAGGSLRLSCAASGSIIDYNAMGWYRQAPGKERELVAAIDWSGSSTYYADSVKGRFTISRDNAKNTVYLQMNSLKPEDTAVYYCNALAYYGMDYWGQGTQVTVSS”, the “polyreactivity (PSR sort gate)” value is “low polyreactivity”.

For “QVQLVESGGGLVQAGGSLRLSCAASGSIIFAYAMGWYRQAPGKERELVAAITTGVSTNYADSVKGRFTISRDNAKNTVYLQMNSLKPEDTAVYYCNADVDYGFDAGVAVQVVIHDYWGQGTQVTVSS”, the “polyreactivity (PSR sort gate)” value was “low polyreactivity”.

As for “QVQLVESGGGLVQAGGSLRLSCAASGSIIFTNTMGWYRQAPGKERELVAAITSGGSTYYADSVKGRFTISRDNAKNTVYLQMNSLKPEDTAVYYCAAAISYYGKYYRLDYWGQGTQVTVSS”, the “polyreactivity (PSR sort gate)” value was “low polyreactivity”.

On to “QVQLVESGGGLVQAGGSLRLSCAASGSIIFVYAMGCYRQAPGKERELVAGINSSGTSTYADSVKGRFTISRDNAKNTVYLQMNSLKPEDTAVYYCAARWFYYRWAYDYWGQGTQVTVSS”, for which the “polyreactivity (PSR sort gate)” value is reported as “low polyreactivity”.

On to “QVQLVESGGGLVQAGGSLRLSCAASGSIIGIYAMGWYRQAPGKEREMVAAINRGGSTYYADSVKGRFTISRDNAKNTVYLQMNSLKPEDTAVYYCSASPPYNTEFDYWGQGTQVTVSS”, for which the “polyreactivity (PSR sort gate)” value is reported as “low polyreactivity”.

Consider “QVQLVESGGGLVQAGGSLRLSCAASGSIIGTYAMGWYRQAPGKERELVAAISSSGGRTYYADSVKGRFTISRDNAKNTVYLQMNILKTEYTAVYYCNTRPGTVFRAGGDYWGQGTQVTVSS”, for which the “polyreactivity (PSR sort gate)” value is listed as “high polyreactivity”.

For “QVQLVESGGGLVQAGGSLRLSCAASGSIIGVNAMGWYRQAPGKERELVAAMSSTGGSTYYADSVKGRFSISRDNAKNTVFLQMNRLKPEDTAVYYCHTDYSKSIGDGYAGFDYWGQGTQVTVSS”, the “polyreactivity (PSR sort gate)” value is given as “low polyreactivity”.

Take “QVQLVESGGGLVQAGGSLRLSCAASGSIIHFYAMGWYRQAPGKERELVAAITSGTSTYYADSVKGRFTISRDNAKNTVYLQMNSLKPEDTAVYYCAAEASHYYYNAYPSYGGSDYWGQGTQVNVSS”: the “polyreactivity (PSR sort gate)” value is “low polyreactivity”.

For the sequence “QVQLVESGGGLVQAGGSLRLSCAASGSIIILYAMGWYRQAPGKERELVAAISLRGGRTYYADSVKGRFTISRDNAKNTVYLQMNSLKPEVTSVYYCATPVTNGFDYWGQGTQVTVSS”, the “polyreactivity (PSR sort gate)” value is on record as “high polyreactivity”.

“QVQLVESGGGLVQAGGSLRLSCAASGSIIKRNAKGWYRQAPGKERELVASISSGGSTKYADSVKGRFTISRDNAKNTVYLQMNSLKPEDTAVYYCAKRSSQTRRAYDYWGQGTQVTVSS”: the “polyreactivity (PSR sort gate)” value is “low polyreactivity”.

On to “QVQLVESGGGLVQAGGSLRLSCAASGSIINIYAMGWYRQAPGKERELVATITGIADSTYYADSVKGRFTISRDNAQNSVYLQMNSLKPEETAVYFCAADKYVAEYDYWGQGSQVTVSS”, for which the “polyreactivity (PSR sort gate)” value was “low polyreactivity”.

As for “QVQLVESGGGLVQAGGSLRLSCAASGSIIPLYAMGWYRQAPGKERELVAAISRRGGSTYYADSVKGRFTISRDNAKNTVYLQMNSLKPEDTAVYYCSVDSPSPSRGPRFYYWGQGTQVTVSS”, the “polyreactivity (PSR sort gate)” value is reported as “high polyreactivity”.

As for “QVQLVESGGGLVQAGGSLRLSCAASGSIIRRYAMGWYRQAPGKERELVAAISSGGSTYYADSVKGRFTISRDNAKNTVYLEMNSLKPVDTAVYYCAAAQRVSWLFGYWGQGTQVTVSS”, the “polyreactivity (PSR sort gate)” value is “high polyreactivity”.

Regarding “QVQLVESGGGLVQAGGSLRLSCAASGSIISAYVMGWYRQAPGKERELVAAITRSGGSTYYADSVKGRFTISRDNAKNTVYLQMNSLTPEDTAVYYCAAKSIIRPYAPRRDDMDYWGQGTQVTVSS”, the “polyreactivity (PSR sort gate)” value is listed as “low polyreactivity”.

On to “QVQLVESGGGLVQAGGSLRLSCAASGSIISGYAMGLDRQARGKERDLVAAISSGGRTKYADSVKGRFTISRDNAKNTVYLQMNSLKPEDTAVYYCNVSYLVYRWIFGWSLDYWGQGTQVTVSS”, for which the “polyreactivity (PSR sort gate)” value is reported as “low polyreactivity”.

Regarding “QVQLVESGGGLVQAGGSLRLSCAASGSIISSNAMGWYRQAPGKEREMVAAITWSGGSTYYADSVKGRFTNSRDNAKNTVYLQMNSLKPEDTAVYYCAADQWRYDGSFTGYGYWGQGTQVTVSS”, the “polyreactivity (PSR sort gate)” value was “low polyreactivity”.

As for “QVQLVESGGGLVQAGGSLRLSCAASGSIITHNTMGWYRQAPGKERELVDSIDSGASTNYADSVKGGFTISRDNAKNTVYLQMNSVKPEDTAVYYCAADVAKFRYRDDYWGQGTQVTVAS”, the “polyreactivity (PSR sort gate)” value is given as “low polyreactivity”.

As for “QVQLVESGGGLVQAGGSLRLSCAASGSIITWNAMGWYRQAPGKERELVAALDWDGGSTYYADSVKGRFTISRDNAKNTVYFQMNRLKPEDTAVYYCAATYGWYTGRYPSGHYYYWGQGTQVTVSS”, the “polyreactivity (PSR sort gate)” value is “low polyreactivity”.

On to “QVQLVESGGGLVQAGGSLRLSCAASGSIIVRYAMGWYRQAPGKERELVAAISWSGGRTYYADSVKGRFTISRDNAKNTVYLQMNSLKPEDTAVYYCAADSSVRYRDTEDYWGQGTQVTVSS”, for which the “polyreactivity (PSR sort gate)” value is “low polyreactivity”.

Regarding “QVQLVESGGGLVQAGGSLRLSCAASGSIIVRYAMGWYRQAPGKERELVAAISWSGGRTYYADSVKGRFTISRDNAKNTVYLQMNSLKPEDTAVYYCAKRQGGRKYVRYEYDSWGQGTQVTVSS”, the “polyreactivity (PSR sort gate)” value is listed as “low polyreactivity”.

“QVQLVESGGGLVQAGGSLRLSCAASGSIIVYNTMGWYRQAPGKERELVAAITVRDDSTYYADSVKGRFTISRDYAKNTVYLQMNSLNPEDTAVYYCNARGYFLIGRDYWGQGTQVTVSS”: the “polyreactivity (PSR sort gate)” value is “low polyreactivity”.

For the sequence “QVQLVESGGGLVQAGGSLRLSCAASGSIIWLYAMGWYRQAPGKERELVAAISSGGSTYYADSVKGRFTISRDNAKNTVYLQMNSLKPEDTAVYYCAATYSSFRRYPGAHYRFGYWGQGSQVTVSS”, the “polyreactivity (PSR sort gate)” value is “high polyreactivity”.

Consider “QVQLVESGGGLVQAGGSLRLSCAASGSIIWRNTMGWYRQAPGKESELVARITGRGGRTNYADSVKGRFTISRDNAKNTVYLQMNSLKPEDTAVYYCAAAYPSVAYSYRYDYWGQGTQVTVSS”, for which the “polyreactivity (PSR sort gate)” value was “high polyreactivity”.

In the case of “QVQLVESGGGLVQAGGSLRLSCAASGSIIWYYAMVWYRQAPGIERELGAAMTGTGGNTYYADSVKGRFTLSRDNAKNTVYLQMNSLKPEDTAVYYCDVRAYPSYPRGVYAYYYWGHGTQVTVSS”, the “polyreactivity (PSR sort gate)” value is “high polyreactivity”.

As for “QVQLVESGGGLVQAGGSLRLSCAASGSIIYANAMGWYRQAPGKEREFVATITDSGAITYYADSVKGRFTISRDNAKNTVYLQMISLKPEDTAVYYCNKDLVVYSVPTHDYDYWGQGTQVTVSS”, the “polyreactivity (PSR sort gate)” value is recorded as “low polyreactivity”.

As to “QVQLVESGGGLVQAGGSLRLSCAASGSIIYAYAMGWYRQAPGKERELVAGIRDGGSTYYADSVKCRFTISRDNAKNTVYLQMNSLKPEDTAVYYCAAGPRIRDDYWGQGTQVTVSS”, the “polyreactivity (PSR sort gate)” value is “low polyreactivity”.

Take “QVQLVESGGGLVQAGGSLRLSCAASGSIIYGYAMGWYRQAPGKERELVASISSGGSTNYADSVKGRFTISRDNAKNTVYLQMNSLKPEDTAVYYCAAYFQRSGFSFRLRGQGTQVTVSS”: the “polyreactivity (PSR sort gate)” value was “high polyreactivity”.

Regarding “QVQLVESGGGLVQAGGSLRLSCAASGSIIYRNAMGWYRQAPGKERELDAAISYSGTSTNYADSVKGRFTISRDNAKNTVYLQMNSLKPEDTAVYYCAARGFPHRRHSLYDYWGQGTHVTVSS”, the “polyreactivity (PSR sort gate)” value is “low polyreactivity”.

Regarding “QVQLVESGGGLVQAGGSLRLSCAASGSILAAYAKGWYRQAPGKERELVAAISLDDGSTYYADSVKGRFTISRDNAKNTVYFQMNSLKPVDTAVYYCAADYYVRSQLLYATSGNYWGQGTQVTVTS”, the “polyreactivity (PSR sort gate)” value is recorded as “high polyreactivity”.

Regarding “QVQLVESGGGLVQAGGSLRLSCAASGSILAGYAMGWYRQAPGKERELVAAITGGYVRSYYADSVKGRFTISRDNAKNTDYLQMNSLKPEDTAVYYCAATWGSVQKGTYYYWGQGTQVTVSS”, the “polyreactivity (PSR sort gate)” value was “low polyreactivity”.

For “QVQLVESGGGLVQAGGSLRLSCAASGSILAINAMGWYRQAPGKERELVAAINWSRGSTFYADSVKGRFTISRDNAKNTVYLQMNSLKPEDTAVYYCNVEWTDSERGDYYVDYDYWGQGTQVTVSS”, the “polyreactivity (PSR sort gate)” value was “low polyreactivity”.
